Assay results: patent publication US20060142193

Target: T1, serum response factor (SRF), P11831
T1 chain: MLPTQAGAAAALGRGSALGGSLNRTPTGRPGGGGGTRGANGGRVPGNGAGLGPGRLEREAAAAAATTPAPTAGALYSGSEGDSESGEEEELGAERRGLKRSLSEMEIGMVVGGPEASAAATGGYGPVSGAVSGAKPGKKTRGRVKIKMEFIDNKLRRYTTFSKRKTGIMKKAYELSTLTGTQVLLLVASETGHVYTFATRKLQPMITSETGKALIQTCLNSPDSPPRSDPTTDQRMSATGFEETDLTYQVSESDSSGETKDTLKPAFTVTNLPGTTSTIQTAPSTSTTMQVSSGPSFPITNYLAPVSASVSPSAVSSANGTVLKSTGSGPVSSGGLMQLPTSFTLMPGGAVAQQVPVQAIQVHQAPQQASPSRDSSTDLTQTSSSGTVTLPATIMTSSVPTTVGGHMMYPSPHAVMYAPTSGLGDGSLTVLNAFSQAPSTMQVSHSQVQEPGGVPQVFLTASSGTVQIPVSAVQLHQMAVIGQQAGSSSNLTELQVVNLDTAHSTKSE

B1: ROCK1Δ1 (C-terminally truncated mutant (1-1080) of ROCK1) (protein)
chain: MSTGDSFETRFEKMDNLLRDPKSEVNSDCLLDGLDALVYDLDFPALRKNKNIDNFLSRYKDTINKIRDLRMKAEDYEVVKVIGRGAFGEVQLVRHKSTRKVYAMKLLSKFEMIKRSDSAFFWEERDIMAFANSPWVVQLFYAFQDDRYLYMVMEYMPGGDLVNLMSNYDVPEKWARFYTAEVVLALDAIHSMGFIHRDVKPDNMLLDKSGHLKLADFGTCMKMNKEGMVRCDTAVGTPDYISPEVLKSQGGDGYYGRECDWWSVGVFLYEMLVGDTPFYADSLVGTYSKIMNHKNSLTFPDDNDISKEAKNLICAFLTDREVRLGRNGVEEIKRHLFFKNDQWAWETLRDTVAPVVPDLSSDIDTSNFDDLEEDKGEEETFPIPKAFVGNQLPFVGFTYYSNRRYLSSANPNDNRTSSNADKSLQESLQKTIYKLEEQLHNEMQLKDEMEQKCRTSNIKLDKIMKELDEEGNQRRNLESTVSQIEKEKMLLQHRINEYQRKAEQENEKRRNVENEVSTLKDQLEDLKKVSQNSQLANEKLSQLQKQLEEANDLLRTESDTAVRLRKSHTEMSKSISQLESLNRELQERNRILENSKSQTDKDYYQLQAILEAERRDRGHDSEMIGDLQARITSLQEEVKHLKHNLEKVEGERKEAQDMLNHSEKEKNNLEIDLNYKLKSLQQRLEQEVNEHKVTKARLTDKHQSIEEAKSVAMCEMEKKLKEEREAREKAENRVVQIEKQCSMLDVDLKQSQQKLEHLTGNKERMEDEVKNLTLQLEQESNKRLLLQNELKTQAFEADNLKGLEKQMKQEINTLLEAKRLLEFELAQLTKQYRGNEGQMRELQDQLEAEQYFSTLYKTQVKELKEEIEEKNRENLKKIQELQNEKETLATQLDLAETKAESEQLARGLLEEQYFELTQESKKAASRNRQEITDKDHTVSRLEEANSMLTKDIEILRRENEELTEKMKKAEEEYKLEKEEEISNLKAAFEKNINTERTLKTQAVNKLAEIMNRKDFKIDRKKANTQDLRKKEKENRKLQLELNQEREKFNQMVVKHQKELNDMQAQLVEECAHRNELQMQL
- level of full-length SRF after incubation with active caspase 3 in the presence or absence of ROCK1Δ1: The full-length level was markedly decreased in the presence of active ROCK1
